Measured values as given in the DeepSol protein solubility set.

Assay: soluble on expression in E. coli; label from the status in PepcDB or PDB records

Row | Sequence | soluble on expression in E. coli
1 | SEKEKGNDDGIPDQENSLDFSEHFNQLELLETHGHLIPTGTQSLWVGNSDEDEEQDDKNEEWYRLQEKKMEKDPSRLLLWAAEKNRLTTVRRLLSEKATHVNTRDEDEYTPLHRAAYSGHLDIVQELIAQGADVHAVTVDGWTPLHSACKWNNTRVASFLLQHDADINAQTKGLLTPLHLAAGNRDSKDTLELLLMNRYVKPGLKNNLEETAFDIARRTSIYHYLFEIVEGCTNSSPQS | soluble
2 | MSIFPTRDSRDLSSRRRSLIDWEFPQMALVPLDQVFDWAERSRQSLHDDIVNMHRNLFSLEPFTAMDNAFESVMKEMSAIQPREFHPELEYTQPGELDFLKDAYEVGKDGRLHFKVYFNVKNFKAEEITIKADKNKLVVRAQKSVACGDAAMSESVGRSIPLPPSVDRNHIQATITTDDVLVIEAPVNEPNYKAIKLSPEKGLAIQPSEVQERQLAVKNKEGLEIVTAEDGSKKIHLELKVDPHFAPKDVKVWAKGNKVYVHGVTGKEEKTENASHSEHREFYKAFVTPEVVDASKTQAEIVDGLMVVEAPLFK | soluble
3 | GAMSSKNEWRKSAIANTLLYLRLKNIYVSADDFVEEQNVYVLPKNLLKKFIEISDVKIQVAAFIYGMSAKDHPKVKEIKTVVLVPQLGHVGSVQISNIPDIGDLPDTEGLELLGWIHTQTEELKFMAASEVATHSKLFADKKRDCIDISIFSTPGSVSLSAYNLTDEGYQWGEENKDIMNVLSEGFEPTFSTHAQLLLSDRITGNFIIPSGNVWNYTFMGTAFNQEGDYNFKYGIPLEFYNEMHRPVHFLQFSE | soluble
4 | MAFTPFPPRQPTASARLPLTLMTLDDWALATITGADSEKYMQGQVTADVSQMAEDQHLLAAHCDAKGKMWSNLRLFRDGDGFAWIERRSVREPQLTELKKYAVFSKVTIAPDDERVLLGVAGFQARAALANLFSELPSKEKQVVKEGATTLLWFEHPAERFLIVTDEATANMLTDKLRGEAELNNSQQWLALNIEAGFPVIDAANSGQFIPQATNLQALGGISFKKGCYTGQEMVARAKFRGANKRALWLLAGSASRLPEAGEDLELKMGENWRRTGTVLAAVKLEDGQVVVQVVMNNDMEPDSIFRVRDDANTLHIEPLPYSLEELEHHHHHH | not soluble
5 | DIQMTQSPASLSASVGETVTITCRASENIYSYLAWYQQKQGKSPQLLVYNAKTLAEGVPSRFSGSGSGTQFSLKINSLQPEDFGSYYCQHHYGTPFTFGSGTKLEIKRHHHHHH | soluble
6 | GPLGSPQFMNPAAEAEFNILLATDSYKVTHYKQYPPNTSKVYSYFECREKKTENSKLRKVKYEETVFYGLQYILNKYLKGKVVTKEKIQEAKDVYKEHFQDDVFNEKGWNYILEKYDGHLPIEIKAVPEGFVIPRGNVLFTVENTDPECYWLTNWIETILVQSWYPITVATNSREQKKILAKYLLETSGNLDGLEYKLHDFGYRGVSSQETAGIGASAHLVNFKGTDTVAGLALIKKYYGTKDPVPGYSVPAAEHSTITAWGKDHEKDAFEHIVTQFSSVPVSVVSDSYDIYNACEKIWGEDLRHLIVSRSTQAPLIIRPDSGNPLDTVLKVLEILGKKFPVTENSKGYKLLPPYLRVIQGDGVDINTLQEIVEGMKQKMWSIENIAFGSGGGLLQKLTRDLLNCSFKCSYVVTNGLGINVFKDPVADPNKRSKKGRLSLHRTPAGNFVTLEEGKGDLEEYGQDLLHTVFKNGKVTKSYSFDEIRKNAQLNIELEAAHH | soluble
7 | MEEEQLLDYEEEQEEIQDKQPEVGGGDARKTKGTYASIHSSGFRDFLLKPEILRAIGDCGFEHPSEVQHECIPQAILGMDVVCQAKSGMGKTAVFVITTLQQLEPVDGEVSVVCMCHTRELAFQISKEYERFSKYLPGVKVAVFFGGMAIKKDEERLANDCPHIVVGTPGRMLALARSGKLKLDKVKYFVLDECDKMIGDADMRRDVQEIVKMTPQQKQVMMFSATLPKELRTVCKRFMQDPMEVYVDDEAKLTLHGLQQHYVKLKEAEKNRRLLNLLDALEFNQVVIFVKAVKRCEALHQLLTEQNFPSIAIHRQMAQEERLSRYQAFKDFQKRILVATDLFGRGMDIERVNIVFNYDMPEDSDSYLHRVARAGRFGTKGLAITFVSDENDAKTLNSVQDRFDISITELPEKIDVSTYIEGRTN | not soluble
8 | MSLSQRGLEALLRPKSIAVIGASMKPNRAGYLMMRNLLAGGFNGPVLPVTPAWKAVLGVLAWPDIASLPFTPDLAVLCTNASRNLALLEELGEKGCKTCIILSAPASQHEDLRACALRHNMRLLGPNSLGLLAPWQGLNASFSPVPIKRGKLAFISQSAAVSNTILDWAQQRKMGFSYFIALGDSLDIDVDELLDYLARDSKTSAILLYLEQLSDARRFVSAARSASRNKPILVIKSGRSPAAQRLLNTTAGMDPAWDAAIQRAGLLRVQDTHELFSAVETLSHMRPLRGDRLMIISNGAAPAALALDALWSRNGKLATLSEETCQKLRDALPEHVAISNPLDLRDDASSEHYIKTLDILLHSQDFDALMVIHSPSAAAPATESAQVLIEAVKHHPRSKYVSLLTNWCGEHSSQEARRLFSEAGLPTYRTPEGTITAFMHMVEYRRNQKQLRETPALPSNLTSNTAEAHLLLQQAIAEGATSLDTHEVQPILQAYGMNTLPTWIASDSTEAVHIAEQIGYPVALKLRSPDIPHKSEVQGVMLYLRTANEVQQAANAIFDRVKMAWPQARVHGLLVQSMANRAGAQELRVVVEHDPVFGPLIMLGEGGVEWRPEDQAVVALPPLNMNLARYLVIQGIKSKKIRARSALRPLDVAGLSQLLVQVSNLIVDCPEIQRLDIHPLLASGSEFTALDVTLDISPFEGDNESRLAVRPYPHQLEEWVELKNGERCLFRPILPEDEPQLQQFISRVTKEDLYYRYFSEINEFTHEDLANMTQIDYDREMAFVAVRRIDQTEEILGVTRAISDPDNIDAEFAVLVRSDLKGLGLGRRLMEKLITYTRDHGLQRLNGITMPNNRGMVALARKLGFNVDIQLEEGIVGLTLNLAQREESEGGSHHHHHH | soluble
9 | MKWMCSICCAAVLLAGGAAQAEAVPNEPINWGFKRSVNHQPPDAGKQLNSLIEKYDAFYLGNTKEKTIYLTFDNGYENGYTPKVLDVLKKHRVTGTFFVTGHFVKDQPQLIKRMSDEGHIIGNHSFHHPDLTTKTADQIQDELDSVNEEVYKITGKQDNLYLRPPRGVFSEYVLKETKRLGYQTVFWSVAFVDWKINNQKGKKYAYDHMIKQAHPGAIYLLHTVSRDNAEALDDAITDLKKQGYTFKSIDDLMFEKEMRLPSL | soluble
10 | MGHHHHHHHHHHSSGHIEGRHMLGLGASDFEFGVDPSADPELALALRVSMEEQRQRQEEEARRAAAASAAEAGIATTGTEDSDDALLKMTISQQEFGRTGLPDLSSMTEEEQIAYAMQMSLQGAEFGQAESA | soluble
11 | MSLNVIMAGIDYTLAPIDIREKFSFTKSTLQAVYNDLLKNENIFGAVIVSTCNRTELYLSCEEGLYINPFELLCDAANFDYEEYSNMHVLRTGVDVIRHLCELACGVKSQIWGEDQIITQVRNAIELAREMNASDSTLEVMFRIAVTSAKKVKTTLKLSSTERSIAYSALKIIKSKENISKALVIGNGEIGRLMASILIENGYDTTITLRRYRHGDNIIPLGAKTIEYVARYEKLKDCDVVISATLSPHYTLEIDKIDRIKYPRLFIDLAVPRDIDPKIKSLDNVELYDLDSIYAGEVDKNRTEQMIQVKKIIDKYIFDYYRWYEYRKRLVLTEGHHHHHH | soluble
12 | MKAQVEYIILPFKKRLDGFTYWQRELEPAIHPALKAYVKAENATGGVSSVMIFWEIARNTDHFCSDFKTDRDVRMFLTLYFWKYLCYFANIDFYTGQDKTEEILKGEAD | not soluble
13 | MGPAHKARDDGEGGWSMNSHPPLSVQTLNTLDRKAFTTALHFAFELSPWVVERAWDARPFASVETMHAAMMAVLDAASTADKLALIRAHPELAGKAAIAKQLTAESNAEQASAGLDKLTPDEFARFHALNAAYNTRFGFPFIICVRLNDKASILEAMAARLSNDEASEIAQAITQIGLISKLRLLDAVTHLEHHHHHH | not soluble
14 | MQNEQLLQEVGLNAYEAAAYLSLLKLGVSEASDIYRDSEVPYGKIYSVLESLAGKGFVEVQASRPKKFRAVDPELALDTFFERRKAEVEREMAFLKSSVEEAKSVLKAVPTQKRKDEFFWTTAITESEIKKFAVSIYSEVKKSVCVLPPVFGISIVFYLLPEITKAIDRGVRIKLMISPRFMALASVLSHQEGEILEKLKKGLDIRLVQNSNSCFGIVDDSIVVLFQPHPTDRDRVLSVVKVRDSGLAKNLKEEFDLLWNAGEKLDLQEELEDKQNPGKN | not soluble
15 | FPELMPLRTQWTTIRDEALALQRIQKIRAAEGHTDAGFNSFFRRGWKRFYLKWYGTTHPSAIALCPKTTALLKNIPAIKAAMFAELPPGGDLRPHRDPFAGSMRLHLGLATPNHTSCFIDVDGQRYSWHDGEWVMFDETYIHYARNDTEHNRIILFCDIERPMRWRWAQALNRFVAKHLLAAGTSPN | not soluble
16 | MGSDKIHHHHHHDEEPKSSLTLDTYYKTSADIIGNVNYLYRDGAPDKMGNMTGAYRGSSLSVMNMVTGYFVNEYEGQEVDCSYARQLTRQNFTQSCCNYLTNDTWKGCYKSINVANAVIKYVDGVEMDGQAQYKAEARFFRALNYFYLVKMFGDVPMITEPTEDATLVEYPARTAASEVYKTVIIPDLQFAVENLPDATFAGNSHRVTKYAADMLLADVYMRLGEYANAITPLKDVINSGKFALATNDNLAEGSAFNKLRTTDDLPEVIYAREYDAAISPNGNIPVHAFNLISPTFFANSSTGNKYSLWVNVYGVSERYLNVYGEKDLRAQMNQFFHRTYTHPVDGTTLDMKMLCNWYWYDETAILETGKGTKDWNFYRYAETLLSAAEAIAQSSGVNAEAAGYLAQVKARANMEGKDVSTIASELQRLGKQAFIEECWKERLREFPLEMKIWDDCVRTGKFPQISATNKGEVQFVDLIGATNGSGAKFKETDLYWPIPVNEIQRNPNLTQNEGYSAK | not soluble
17 | MGSDKIHHHHHHMEQKLSESEQYLWHFIETHILEIPDYSIVKLSERANVSTATIVRTMKKKGYEGFTSFKHHLKDKENQNINFSALEKVDRGIRTAILKNEEEVTRTINMIEIGNIEDAIQKIKASRRIIIFARGFSELIAQEMMVKFQLAGKYCELHTDPEIIKNISKKLSKKDVALFVSLNGETQELVVAGKNCYDSEIGTILLTASKHSSLMKYIEIPFVGFKSEGSFFPDYEVRSRLPLSILARILLDAYALRTTT | not soluble
18 | MSTNIFLHLPTTISTERTILRKTSFADATTLFDIWSDNDVAQFMNIEKFSTILQAEEMIQAIENEPNACRYTIFTMDNSLKAIGSLGINDINKNNQTIEIGYELAKSHWRQGLMFEILTTFLNTTKAHLPYKTITAKVLPENIASIKLLTKLGFELISTGQELDLHSGKICEISNYQLILN | not soluble
19 | MNRSNQDITQPTAIIAVVGVGAEQGIGAAVCRRFAQEKFKVYVAGRTLNKVEKVAAAIHRQGGQAVAYVLDAENEQQLQTLFDHLNDQPEALAAVIHNVGGNIPSIFLQSSLKFFSQMWRSTFLSSVLVAQRSLSIFQKQQQGTLIFTGASASLRGKPFFAAFSMGKSALRSYALNLAELYRSQNIHVAHVMVDGMVDGDRVNKALWGLGRLARLTRGTGGLNIDAIAENYWMLYQQNVDLWTHELDLRPYQEKF | not soluble
20 | MAHHHHHHMRGKRRQHRELYQAVLREQAAKAQEDAAQRRARLSWKEKLQLSFQEARESVTQLTSAKAGVMALLQHCTASHTAEVALEQGIDVKNVQMVFEKAAASNSVGVEEIVVGYIDAPGASHEEVMAFAEKLHKVCPVAKSMHIEWRQGSADSRRHEDGAVRRADGLHREMEQAASGVEWAESRTGSNLGGRSSAADAASTTSVESMPAGMPGSRRVQSSMSSRATRGGSLRDDEDKLHFPGVEKRDTAWDSTRHGSSRAKEPSTETSTASHRPPPPESASAATTQPGACSSDPASASPFPKP | soluble
